Values quoted from earlier work in article PMC4476730.
Like-named read-outs stand apart in the source and are kept apart here.

Key:
CBP KIX (Homo sapiens) [1] = molecular target: CBP KIX (Homo sapiens) (UniProt Q92793)
CBP KIX (Homo sapiens) [2] = molecular target: CBP KIX (Homo sapiens) (UniProt Q92793); remark: listed apart in the source

UniProt Q92793, sequence (Q92793 584-669): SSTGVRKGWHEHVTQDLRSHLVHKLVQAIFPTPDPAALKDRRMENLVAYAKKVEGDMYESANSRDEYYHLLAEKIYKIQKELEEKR

Kd (CBP KIX (Homo sapiens) [1]): 17 µM
Kd (CBP KIX (Homo sapiens) [2]): 7.2 µM
Substance: E2A AD2 (from UniProt P15923)
